The target in test [1] is T1, human NKG2D expressed on EL4 cells (Example 8) (human, UniProt P26718 1-216).
T1 construct: whole, on cells; also called extracellular NKG2D expressed on EL4 cells
T1 sequence (looked up): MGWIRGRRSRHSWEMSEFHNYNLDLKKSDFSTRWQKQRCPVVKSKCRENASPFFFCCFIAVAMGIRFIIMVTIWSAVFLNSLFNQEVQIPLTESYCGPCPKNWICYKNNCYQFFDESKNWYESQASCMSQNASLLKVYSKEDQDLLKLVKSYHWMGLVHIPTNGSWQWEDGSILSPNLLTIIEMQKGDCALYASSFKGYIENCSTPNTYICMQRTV
The experiment in a line: flow cytometry on EL4 cells expressing human NKG2D. The protocol:
EL4 mouse lymphoma cell lines were engineered to express human NKG2D. […] The binding of the multi-specific binding proteins to NKG2D was detected using fluorophore-conjugated anti-human IgG secondary antibodies. Cells were analyzed by flow cytometry, and fold-over-background (FOB) was calculated using the mean fluorescence intensity (MFI) of NKG2D-expressing cells compared to parental EL4 cells.
For orientation: A flow cytometer gives signals particle by particle.

Test [2] has as its target T2, CD33 expressed on human AML cells (MV4-11, Molm-13) (human, UniProt P20138 18-364).
T2 construct: In the assay the endogenous CD33 of the human AML cell lines was the target; also called cell surface CD33; tumor associated antigen CD33
The experiment in a line: flow cytometry on Molm-13 and MV4-11 human AML cells. The protocol:
Human AML cell line MV4-11 and Molm-13 expressing CD33 were used to assay the binding of TriNKETs to the tumor associated antigen CD33. TriNKETs and optionally the parental anti-CD33 monoclonal antibody were incubated with the cells, and the binding was detected using fluorophore-conjugated anti-human IgG secondary antibodies. Cells were analyzed by flow cytometry, and fold-over-background (FOB) was calculated using the mean fluorescence intensity (MFI) from the TriNKETs and the parental monoclonal anti-CD33 antibody normalized to secondary antibody controls. […] The TriNKETs show binding to cell surface CD33 on MV4-11 (FIGS. 36A, 36B, and 36D) and Molm-13 cells (FIG. 36C).

Changes are numbered by the printed parent chain.

T2 sequence (P20138 18-364 limits assumed): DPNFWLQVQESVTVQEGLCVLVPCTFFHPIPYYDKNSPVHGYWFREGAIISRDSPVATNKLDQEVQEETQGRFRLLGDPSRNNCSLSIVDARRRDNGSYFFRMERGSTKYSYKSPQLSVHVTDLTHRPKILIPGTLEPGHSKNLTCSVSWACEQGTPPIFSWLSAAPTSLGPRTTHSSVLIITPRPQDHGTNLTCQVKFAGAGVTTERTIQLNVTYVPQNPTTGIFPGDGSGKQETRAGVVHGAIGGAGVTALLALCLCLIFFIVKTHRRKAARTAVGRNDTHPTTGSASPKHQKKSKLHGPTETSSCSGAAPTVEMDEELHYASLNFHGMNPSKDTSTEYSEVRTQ

B1: CD33-TriNKET-C26 (ADI-28226 and a CD33-binding domain) (bispecific antibody, V domains shown)
VH 1: QVQLQQWGAGLLKPSETLSLTCAVYGGSFSGYYWSWIRQPPGKGLEWIGEIDHSGSTNYNPSLKSRVTISVDTSKNQFSLKLSSVTAADTAVYYCARARGPWSFDPWGQGTLVTVSS
VL 1: DIQMTQSPSTLSASVGDRVTITCRASQSISSWLAWYQQKPGKAPKLLIYKASSLESGVPSRFSGSGSGTEFTLTISSLQPDDFATYYCQQYGSFPITFGGGTKVEIK
VH 2: QVQLVQSGAEVKKPGASVKVSCKASGYTFTDYVVHWVRQAPGQGLEWMGYINPYNDGTKYNEKFKGRVTMTRDTSISTAYMELSRLRSDDTAVYYCARDYRYEVYGMDYWGQGTLVTVSS
VL 2: DIVLTQSPASLAVSPGQRATITCTASSSVNYIHWYQQKPGQPPKLLIYDTSKVASGVPARFSGSGSGTDFTLTINPVEANDTANYYCQQWRSYPLTFGQGTKLEIK
B1: the binding result in test [1] was “binds”.

B2: CD33-TriNKET-A44 (ADI-27744 and a CD33-binding domain) (bispecific antibody, V domains shown)
VH 1: not shown
VL 1: DIQMTQSPSSVSASVGDRVTITCRASQGIDSWLAWYQQKPGKAPKLLIYAASSLQSGVPSRFSGSGSGTDFTLTISSLQPEDFATYYCQQGVSYPRTFGGGTKVEIK
VH 2: B1 VH 2
VL 2: B1 VL 2
Regarding B2, the binding result in test [1] was “binds”.

B3: CD33-TriNKET-A49 (ADI-27749 and a CD33-binding domain) (bispecific antibody, V domains shown)
VH 1: EVQLVESGGGLVKPGGSLRLSCAASGFTFSSYSMNWVRQAPGKGLEWVSSISSSSSYIYYADSVKGRFTISRDNAKNSLYLQMNSLRAEDTAVYYCARGAPMGAAAGWFDPWGQGTLVTVSS
VL 1: B2 VL 1 with D30S, Y94F
VH 2: B1 VH 2
VL 2: B1 VL 2
Regarding B3, in test [1], the binding result was “binds”.

B4: parental anti-CD33 monoclonal antibody (antibody, V domains shown)
VH: B1 VH 2
VL: B1 VL 2
notes: Detected with anti-human IgG; also called parental monoclonal anti-CD33 antibody; parental anti-CD33 antibody
With B4, in test [2], the binding result is listed as “binds”.

B5: CD33-TriNKET-F47 (ADI-29447 and a CD33-binding domain) (bispecific antibody, V domains shown)
VH 1: B1 VH 1
VL 1: DIQMTQSPSTLSASVGDRVTITCRASQSISSWLAWYQQKPGKAPKLLIYKASSLESGVPSRFSGSGSGTEFTLTISSLQPDDFATYYCQQYDTFITFGGGTKVEIK
VH 2: B1 VH 2
VL 2: B1 VL 2
B5: the binding result in test [1] is “binds”.

(Values after patent publication US20210130471A1 (DRAGONFLY THERAPEUTICS, published 2021).)
